± gives the half width of the 95% confidence interval.
What was measured:
[1] = folding stability dG unfold from trypsin proteolysis; higher = more stable
In short: (§1)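 Only designs with AlphaFold2 dimer inter-PAE above 15 were retained; each was a mini-protein under 80 residues with no cysteine, in a PA-tagged cDNA display construct. After digestion with trypsin and chymotrypsin and sequencing, K50 was inferred by Bayesian fitting of counts, and unfolding free energy was derived per protease or combined against a sequence-predicted unfolded-state K50 and a shared folded-state K50.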

[2] = folding stability dG unfold (combined trypsin and chymotrypsin); higher = more stable
In short: as §1

[3] = folding stability dG unfold from chymotrypsin proteolysis; higher = more stable
In short: as §1

Row | Sequence | folding stability dG unfold [1] [kcal/mol] | folding stability dG unfold [2] [kcal/mol] | folding stability dG unfold [3] [kcal/mol]
1 | SAGGSAGGSASMDTVVEVGPEILSTGLPIEKVTYDPNTGKTYIETPDKLYVIDSDGNITVDASAGGSAGGSA [r18_445_JUSTAS] | 1.72 ± 0.057 | 1.72 ± 0.057 | 1.69 ± 0.025
2 | SAGKKKKIKIKVKIIVNGKLKEIEIEVDENKTLEEILAEIKKKLPKNAIIIITNENGEKKIIILPKEELSAG [r5_77_TrROS_Hall] | 2.49 ± 0.24 | 1.89 ± 0.45 | 1.58 ± 0.1
3 | SAGGSAGGSAGFYKAKLKILKTKVYSNEKGTKKKTYKPVLILEELIPPKIPKELWEKLNKSAGGSAGGSAGG [r11_318_TrMRF] | 0.836 ± 0.3 | 0.55 ± 0.57 | 0.528 ± 0.4
4 | SAGGSAGGMIVLPPGATVDFDPSVARLTVTVKDPNSDKSTTTTYDVPPTATVTSAPGTIVVNVPSAGGSAGG [r6_804_JUSTAS] | -0.656 ± 0.14 | 0.171 ± 0.073 | 0.476 ± 0.11
5 | SAGGSAATTVAVNGKEITIVSVDPATGKVTIAVPENVPESVIQAAKDLLEAQGLPVEVKRVPPEKLSAGGSA [r15_570_JUSTAS] | 1.42 ± 0.044 | 1.33 ± 0.05 | 1.3 ± 0.013
6 | FRFTIPLPDGKKIIIDYRPMPDGNYMFDVKLQLPNGKERTIPIMVPREEFPGMPMEEMAETMVKEALKKLKS [r1_92_TrROS] | 2.63 ± 0.15 | 3.3 ± 0.26 | 3.4 ± 0.13
7 | SAGGSVEKKLLEYDPATGNRLVEVTAKAKPEVVEELIAKGYDPSTISPLGDGTVRALLTIPPDEKLDSAGGS [r16_755_JUSTAS] | -0.295 ± 0.25 | -0.248 ± 0.21 | -0.332 ± 0.25
8 | SAGGSAKKKKKKKVKKVITIPVGGYKIEITYNKKTKKITVKVYKKNKNGKLLSEEEVKKLVKELLSSAGGSA [r15_735_TrROS_Hall] | 1.73 ± 0.1 | 2.58 ± 0.53 | 3.4 ± 0.2
9 | SAGGSAGGSGMVEEEEYEDPATGVRTRTTTTYLPNGTVVRTPVVYTPDRPVEEVPTVTPIPSGSAGGSAGGS [r20_88_JUSTAS] | 1.04 ± 0.075 | 0.958 ± 0.21 | 0.62 ± 0.13
10 | SAGGSAGGSAKPKITVTVEEVTNEDGSTYYRATARIEETGRTIEIYVRRDDLGKPVAIKITSAGGSAGGSAG [r3_432_TrROS_Hall] | 1.82 ± 0.058 | 2.18 ± 0.12 | 2.4 ± 0.085
11 | SAGGSAGGSMKITKTEEGVYLVEFTLPDGTPLVIPFPTDDPFLTEEQAVEIAKPIAAAFAAAGSAGGSAGGS [r12_642_TrMRF] | 0.84 ± 0.016 | 1.22 ± 0.044 | 1.35 ± 0.038
12 | SAGGSAGGSAGVIRVKLKDGPVREIPLEDVPPELLNTPELLAAIEALAREAGYEIESIEASAGGSAGGSAGG [r11_467_TrMRF] | 1.7 ± 0.038 | 2.03 ± 0.056 | 2.22 ± 0.029
13 | SAGDADEDPVLVVFVRTEERPLVVVRRVEPDEDPEEVAKELAAEIREKLGPDVEVFVEMVRREDAEKLFSAG [r5_583_TrMRF] | 2.27 ± 0.052 | 2.42 ± 0.11 | 2.44 ± 0.039
14 | SMKIVKIEIEKIEIYSDEEFAKKTGIKPEAIYKNGKKKKVIKIPVKITLYDEKKGEKKEFEAEITIVIDVSA [r9_382_TrMRF] | 1.56 ± 0.15 | 2.2 ± 0.38 | 2.61 ± 0.19
15 | SAGGSAGGSAGIVIKAKSPDEAVEALKKLFEKTGKADINIKPVKVLPDGNVLVEAGIDNKSAGGSAGGSAGG [r17_430_TrMRF] | -0.403 ± 0.054 | -0.689 ± 0.34 | -1.43 ± 0.61
16 | SAGGKTKEIELEILFEPVKVKKKKKNKNGKEEEVEEKEFKPVLVRITLKIENGKITEIKIEVEKLDDLSAGG [r13_935_TrROS_Hall] | 2.05 ± 0.077 | 2.93 ± 0.26 | 3.37 ± 0.11
17 | SAGGSAGGSADWQKLEYPFPPGMPLDNIKEELRDLFPGKKPTIEIDKIEPHNGQYWIKITVKSAGGSAGGSA [r18_360_TrROS] | 0.42 ± 0.047 | 0.291 ± 0.075 | 0.0785 ± 0.15

— the supplement of paper PMC12764529
